Assay results published in IntAct's records for PubMed 23353789.

B1: Chromosome partition protein Smc (Bacillus subtilis), P51834 (parent)
chain: MFLKRLDVIGFKSFAERISVDFVKGVTAVVGPNGSGKSNITDAIRWVLGEQSARSLRGGKMEDIIFAGSDSRKRLNLAEVTLTLDNDDHFLPIDFHEVSVTRRVYRSGESEFLINNQPCRLKDIIDLFMDSGLGKEAFSIISQGKVEEILSSKAEDRRSIFEEAAGVLKYKTRKKKAENKLFETQDNLNRVEDILHELEGQVEPLKIQASIAKDYLEKKKELEHVEIALTAYDIEELHGKWSTLKEKVQMAKEEELAESSAISAKEAKIEDTRDKIQALDESVDELQQVLLVTSEELEKLEGRKEVLKERKKNAVQNQEQLEEAIVQFQQKETVLKEELSKQEAVFETLQAEVKQLRAQVKEKQQALSLHNENVEEKIEQLKSDYFELLNSQASIRNELQLLDDQMSQSAVTLQRLADNNEKHLQERHDISARKAACETEFARIEQEIHSQVGAYRDMQTKYEQKKRQYEKNESALYQAYQYVQQARSKKDMLETMQGDFSGFYQGVKEVLKAKERLGGIRGAVLELISTEQKYETAIEIALGASAQHVVTDDEQSARKAIQYLKQNSFGRATFLPLSVIRDRQLQSRDAETAARHSSFLGVASELVTFDPAYRSVIQNLLGTVLITEDLKGANELAKLLGHRYRIVTLEGDVVNPGGSMTGGAVKKKNNSLLGRSRELEDVTKRLAEMEEKTALLEQEVKTLKHSIQDMEKKLADLRETGEGLRLKQQDVKGQLYELQVAEKNINTHLELYDQEKSALSESDEERKVRKRKLEEELSAVSEKMKQLEEDIDRLTKQKQTQSSTKESLSNELTELKIAAAKKEQACKGEEDNLARLKKELTETELALKEAKEDLSFLTSEMSSSTSGEEKLEEAAKHKLNDKTKTIELIALRRDQRIKLQHGLDTYERELKEMKRLYKQKTTLLKDEEVKLGRMEVELDNLLQYLREEYSLSFEGAKEKYQLETDPEEARKRVKLIKLAIEELGTVNLGSIDEFERVNERYKFLSEQKEDLTEAKNTLFQVIEEMDEEMTKRFNDTFVQIRSHFDQVFRSLFGGGRAELRLTDPNDLLHSGVEIIAQPPGKKLQNLNLLSGGERALTAIALLFSILKVRPVPFCVLDEVEAALDEANVFRFAQYLKKYSSDTQFIVITHRKGTMEEADVLYGVTMQESGVSKVISVKLEETKEFVQ
partner: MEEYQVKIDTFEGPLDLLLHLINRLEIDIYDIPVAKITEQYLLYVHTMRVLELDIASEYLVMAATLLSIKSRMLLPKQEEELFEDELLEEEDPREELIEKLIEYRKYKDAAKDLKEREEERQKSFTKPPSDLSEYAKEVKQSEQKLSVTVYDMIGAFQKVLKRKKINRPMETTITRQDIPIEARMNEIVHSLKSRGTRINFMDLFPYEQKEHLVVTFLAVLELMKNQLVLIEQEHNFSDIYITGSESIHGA
B2: Segregation and condensation protein A (Bacillus subtilis), P35154 (parent)
chain: B1 partner
partner: B1 chain

Variants of: B1
Settings: with scpa_bacsu scpA
With V1021E the “effect of a mutation on the interaction” value was “disrupting interaction strength”.
Y170E was tested, and the “effect of a mutation on the interaction” value was “decreasing interaction strength”.

Variants of: B1
Settings: with scpa_bacsu scpA
Remark: another data set of the same source
I1174E was tested, and the “effect of a mutation on the interaction” value was “disrupting interaction strength”.
With V1176E the “effect of a mutation on the interaction” value was “disrupting interaction strength”.

Variants of: B2
Settings: with smc_bacsu smc
For L67E, the “effect of a mutation on the interaction” value was “disrupting interaction strength”.
For L60K, the “effect of a mutation on the interaction” value was “disrupting interaction strength”.
K70E was tested, and the “effect of a mutation on the interaction” value was “disrupting interaction strength”.
